Assays:
MinD (E. coli) [1] = target: MinD (E. coli) (UniProt P0AEZ3)
FL-MinD (E. coli) = FL-MinD (E. coli) (UniProt P0AEZ3)
MinD (E. coli) [2] = target: MinD (E. coli) (UniProt P0AEZ3); remark: listed apart in the source

ClpXP, sequence (P0A6H1 whole entry): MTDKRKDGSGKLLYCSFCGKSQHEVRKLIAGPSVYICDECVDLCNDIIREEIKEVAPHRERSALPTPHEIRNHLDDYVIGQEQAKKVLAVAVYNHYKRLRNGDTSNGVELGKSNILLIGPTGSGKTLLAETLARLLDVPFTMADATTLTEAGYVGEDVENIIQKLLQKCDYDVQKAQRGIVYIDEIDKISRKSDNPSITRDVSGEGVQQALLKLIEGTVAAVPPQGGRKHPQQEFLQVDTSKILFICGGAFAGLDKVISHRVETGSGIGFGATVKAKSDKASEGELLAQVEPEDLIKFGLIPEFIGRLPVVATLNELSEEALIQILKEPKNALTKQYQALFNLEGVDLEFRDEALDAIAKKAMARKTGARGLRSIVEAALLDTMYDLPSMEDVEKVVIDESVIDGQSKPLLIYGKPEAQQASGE
ClpXP, sequence (P0A6G7 15-207): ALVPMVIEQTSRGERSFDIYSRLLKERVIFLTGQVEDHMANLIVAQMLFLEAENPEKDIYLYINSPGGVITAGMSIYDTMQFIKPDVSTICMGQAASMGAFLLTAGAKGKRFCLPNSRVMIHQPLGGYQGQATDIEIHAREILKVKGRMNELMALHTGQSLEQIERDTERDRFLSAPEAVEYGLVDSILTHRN
MinD (E. coli), sequence (P0AEZ3 whole entry): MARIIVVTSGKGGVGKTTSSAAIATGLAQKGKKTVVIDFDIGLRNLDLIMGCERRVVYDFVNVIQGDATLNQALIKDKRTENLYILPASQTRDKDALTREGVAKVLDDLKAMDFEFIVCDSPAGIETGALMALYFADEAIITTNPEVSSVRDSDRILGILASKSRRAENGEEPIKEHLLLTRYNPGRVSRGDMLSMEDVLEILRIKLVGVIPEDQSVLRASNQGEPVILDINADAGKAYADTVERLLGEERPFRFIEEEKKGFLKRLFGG
FL-MinD (E. coli), sequence (P0AEZ3 whole entry): as above

A loss of full-length MinD (SDS-PAGE, Coomassie) after 3 h with MinD (6 μM), ClpX (1.0 μM), ClpP (1.2 μM) and ATP; no change when ATP or ClpP was omitted (MinD (E. coli) [1]) of 45.9%, a rate of degradation of fluorescent MinD (fluorescent peptides released), MinD 0-16 μM, ClpXP 0.8 μM, ATP 8 mM; rate at the plateau (FL-MinD (E. coli)) of 0.08 min⁻¹ and a degradation of MinD (6 μM) by ClpX (0.75 μM), ClpP (0.9 μM) with ATP, SDS-PAGE and densitometry over time (MinD (E. coli) [2]) of 50% were found for “ClpXP (from UniProt P0A6H1 1-424; P0A6G7 15-207) (complex)” in this work.

Reference: paper PMC7857489
